Publication doi:10.1101/2025.09.02.671137 (bioRxiv, 2025)

T1: Cdc13 (Saccharomyces cerevisiae, UniProt P32797 1-924)
T1 sequence: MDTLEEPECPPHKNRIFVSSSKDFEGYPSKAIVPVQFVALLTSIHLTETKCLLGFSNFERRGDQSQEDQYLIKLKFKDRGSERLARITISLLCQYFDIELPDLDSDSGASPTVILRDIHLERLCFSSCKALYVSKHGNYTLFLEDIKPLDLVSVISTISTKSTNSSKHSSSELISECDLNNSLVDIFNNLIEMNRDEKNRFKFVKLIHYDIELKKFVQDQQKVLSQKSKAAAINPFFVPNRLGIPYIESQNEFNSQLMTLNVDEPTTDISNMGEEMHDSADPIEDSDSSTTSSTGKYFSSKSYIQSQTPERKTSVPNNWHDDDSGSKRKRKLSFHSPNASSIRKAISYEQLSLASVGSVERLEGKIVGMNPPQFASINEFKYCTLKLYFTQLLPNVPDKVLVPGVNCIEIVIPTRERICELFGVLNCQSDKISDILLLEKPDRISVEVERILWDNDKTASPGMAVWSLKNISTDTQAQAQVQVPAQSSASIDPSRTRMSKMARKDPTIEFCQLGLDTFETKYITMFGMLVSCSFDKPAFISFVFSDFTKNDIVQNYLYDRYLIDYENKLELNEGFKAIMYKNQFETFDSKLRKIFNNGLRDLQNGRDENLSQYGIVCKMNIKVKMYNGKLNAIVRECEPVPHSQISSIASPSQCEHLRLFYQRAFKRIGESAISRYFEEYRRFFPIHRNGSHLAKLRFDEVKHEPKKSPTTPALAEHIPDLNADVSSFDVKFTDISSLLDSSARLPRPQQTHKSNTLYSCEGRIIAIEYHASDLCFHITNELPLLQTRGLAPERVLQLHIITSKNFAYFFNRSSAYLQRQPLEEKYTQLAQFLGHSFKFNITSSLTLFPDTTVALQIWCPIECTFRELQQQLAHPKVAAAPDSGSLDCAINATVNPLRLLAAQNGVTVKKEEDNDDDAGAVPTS

T2: Cdc13-K504E (Saccharomyces cerevisiae, UniProt P32797 1-924, K504E)
T2 sequence: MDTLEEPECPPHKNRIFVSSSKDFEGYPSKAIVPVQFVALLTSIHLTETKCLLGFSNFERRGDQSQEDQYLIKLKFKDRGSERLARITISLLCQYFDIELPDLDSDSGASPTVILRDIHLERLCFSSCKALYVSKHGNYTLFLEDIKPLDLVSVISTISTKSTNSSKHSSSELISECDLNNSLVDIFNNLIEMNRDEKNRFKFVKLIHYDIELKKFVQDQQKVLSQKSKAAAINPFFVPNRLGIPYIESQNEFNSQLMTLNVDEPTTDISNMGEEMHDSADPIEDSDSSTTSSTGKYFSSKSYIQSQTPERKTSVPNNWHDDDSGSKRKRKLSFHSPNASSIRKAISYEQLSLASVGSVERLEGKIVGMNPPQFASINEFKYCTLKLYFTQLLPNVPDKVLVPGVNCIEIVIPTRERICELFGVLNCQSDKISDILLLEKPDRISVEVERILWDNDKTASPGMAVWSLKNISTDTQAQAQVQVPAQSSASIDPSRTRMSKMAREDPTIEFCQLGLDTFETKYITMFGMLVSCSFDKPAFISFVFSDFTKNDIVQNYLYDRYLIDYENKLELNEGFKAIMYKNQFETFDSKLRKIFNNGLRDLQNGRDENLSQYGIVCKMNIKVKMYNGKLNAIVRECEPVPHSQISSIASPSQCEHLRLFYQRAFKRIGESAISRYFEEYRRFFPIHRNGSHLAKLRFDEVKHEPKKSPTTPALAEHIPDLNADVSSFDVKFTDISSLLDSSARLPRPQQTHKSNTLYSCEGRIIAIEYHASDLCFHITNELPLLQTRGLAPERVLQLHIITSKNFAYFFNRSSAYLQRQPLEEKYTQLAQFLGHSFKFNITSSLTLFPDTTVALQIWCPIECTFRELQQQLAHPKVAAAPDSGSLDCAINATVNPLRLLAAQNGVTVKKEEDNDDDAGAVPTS

T3: Cdc13-OB234 (Saccharomyces cerevisiae, UniProt P32797 341-924)
T3 sequence: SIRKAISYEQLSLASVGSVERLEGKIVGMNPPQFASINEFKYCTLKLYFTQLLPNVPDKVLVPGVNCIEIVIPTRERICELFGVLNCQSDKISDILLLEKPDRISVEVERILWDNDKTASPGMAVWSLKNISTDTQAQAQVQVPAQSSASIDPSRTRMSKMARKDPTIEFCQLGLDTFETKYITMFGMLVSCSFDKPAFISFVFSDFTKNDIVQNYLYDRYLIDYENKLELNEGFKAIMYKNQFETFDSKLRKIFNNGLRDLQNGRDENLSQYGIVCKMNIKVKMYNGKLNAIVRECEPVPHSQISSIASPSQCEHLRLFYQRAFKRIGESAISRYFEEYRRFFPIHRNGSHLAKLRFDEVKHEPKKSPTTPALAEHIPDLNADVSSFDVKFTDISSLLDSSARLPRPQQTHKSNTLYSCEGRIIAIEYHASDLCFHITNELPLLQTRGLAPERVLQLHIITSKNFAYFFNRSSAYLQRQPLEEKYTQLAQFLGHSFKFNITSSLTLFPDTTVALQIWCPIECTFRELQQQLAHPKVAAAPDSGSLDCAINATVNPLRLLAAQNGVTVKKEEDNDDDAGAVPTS


Columns and labels:
RPA = RPA (UniProt P22336;P26754;P26755 1-621;1-273;1-122); experiment: EMSA
Chain of RPA (P22336 whole entry, chain 1 of 3): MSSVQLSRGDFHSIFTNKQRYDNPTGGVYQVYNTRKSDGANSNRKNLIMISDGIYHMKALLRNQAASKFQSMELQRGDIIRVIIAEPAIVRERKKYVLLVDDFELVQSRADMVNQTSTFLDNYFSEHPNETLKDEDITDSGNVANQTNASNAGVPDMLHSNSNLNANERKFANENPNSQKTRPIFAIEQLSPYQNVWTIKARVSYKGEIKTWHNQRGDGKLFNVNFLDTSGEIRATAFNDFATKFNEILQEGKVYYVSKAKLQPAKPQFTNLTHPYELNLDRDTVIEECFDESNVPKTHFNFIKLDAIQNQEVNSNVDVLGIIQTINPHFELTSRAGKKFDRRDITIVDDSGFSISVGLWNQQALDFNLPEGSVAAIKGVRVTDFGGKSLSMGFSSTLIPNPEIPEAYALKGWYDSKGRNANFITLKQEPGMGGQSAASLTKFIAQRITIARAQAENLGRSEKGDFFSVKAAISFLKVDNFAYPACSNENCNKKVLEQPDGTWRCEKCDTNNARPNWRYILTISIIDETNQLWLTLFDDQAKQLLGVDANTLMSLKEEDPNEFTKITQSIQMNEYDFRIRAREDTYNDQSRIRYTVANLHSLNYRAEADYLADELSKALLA
Chain of RPA (P26754 whole entry, chain 2 of 3): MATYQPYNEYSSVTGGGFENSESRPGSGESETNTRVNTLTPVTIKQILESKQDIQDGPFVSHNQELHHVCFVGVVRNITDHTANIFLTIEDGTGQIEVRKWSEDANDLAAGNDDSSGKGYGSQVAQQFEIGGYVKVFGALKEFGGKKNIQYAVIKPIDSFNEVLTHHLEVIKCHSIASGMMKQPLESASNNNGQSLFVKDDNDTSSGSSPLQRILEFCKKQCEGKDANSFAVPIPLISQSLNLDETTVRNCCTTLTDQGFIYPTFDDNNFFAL
Chain of RPA (P26755 whole entry, chain 3 of 3): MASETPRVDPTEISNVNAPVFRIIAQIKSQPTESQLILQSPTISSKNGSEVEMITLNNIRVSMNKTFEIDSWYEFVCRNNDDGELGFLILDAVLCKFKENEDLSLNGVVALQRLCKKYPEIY

Cdc13 [1] = molecular target: T1, Cdc13; experiment: EMSA
SEC = molecular target: the molecule itself; experiment: SEC
Cdc13 [2] = molecular target: T1, Cdc13; experiment: EMSA; remark: listed apart in the source
Cdc13-K504E = molecular target: T2, Cdc13-K504E; experiment: EMSA
Cdc13 [3] = molecular target: T1, Cdc13; experiment: DNase I footprinting
Cdc13-OB234 = molecular target: T3, Cdc13-OB234; experiment: DNase I footprinting
Ku (Ku70-Ku80);Cdc13 = Ku (Ku70-Ku80);Cdc13 (Saccharomyces cerevisiae;Saccharomyces …, UniProt P32807;Q04437;P32797 1-602;1-629;1-924, |); experiment: EMSA
Chain of Ku (Ku70-Ku80);Cdc13 (P32807 whole entry, chain 1 of 2): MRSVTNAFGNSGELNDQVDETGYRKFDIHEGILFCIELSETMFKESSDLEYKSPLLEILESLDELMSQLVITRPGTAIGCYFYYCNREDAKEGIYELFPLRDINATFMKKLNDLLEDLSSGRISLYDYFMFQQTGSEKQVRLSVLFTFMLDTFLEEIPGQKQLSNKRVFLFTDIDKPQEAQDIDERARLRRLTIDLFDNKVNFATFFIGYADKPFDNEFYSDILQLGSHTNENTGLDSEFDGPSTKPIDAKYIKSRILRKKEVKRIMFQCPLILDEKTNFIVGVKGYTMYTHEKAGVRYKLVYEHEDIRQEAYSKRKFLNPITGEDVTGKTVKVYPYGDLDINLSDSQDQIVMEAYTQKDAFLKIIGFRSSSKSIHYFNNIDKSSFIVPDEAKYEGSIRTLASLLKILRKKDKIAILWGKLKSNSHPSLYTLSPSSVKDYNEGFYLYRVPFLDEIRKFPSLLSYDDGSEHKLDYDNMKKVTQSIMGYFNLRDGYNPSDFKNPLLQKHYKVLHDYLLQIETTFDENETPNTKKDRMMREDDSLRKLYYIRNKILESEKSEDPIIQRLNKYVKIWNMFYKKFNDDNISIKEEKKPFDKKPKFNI
Chain of Ku (Ku70-Ku80);Cdc13 (Q04437 whole entry, chain 2 of 2): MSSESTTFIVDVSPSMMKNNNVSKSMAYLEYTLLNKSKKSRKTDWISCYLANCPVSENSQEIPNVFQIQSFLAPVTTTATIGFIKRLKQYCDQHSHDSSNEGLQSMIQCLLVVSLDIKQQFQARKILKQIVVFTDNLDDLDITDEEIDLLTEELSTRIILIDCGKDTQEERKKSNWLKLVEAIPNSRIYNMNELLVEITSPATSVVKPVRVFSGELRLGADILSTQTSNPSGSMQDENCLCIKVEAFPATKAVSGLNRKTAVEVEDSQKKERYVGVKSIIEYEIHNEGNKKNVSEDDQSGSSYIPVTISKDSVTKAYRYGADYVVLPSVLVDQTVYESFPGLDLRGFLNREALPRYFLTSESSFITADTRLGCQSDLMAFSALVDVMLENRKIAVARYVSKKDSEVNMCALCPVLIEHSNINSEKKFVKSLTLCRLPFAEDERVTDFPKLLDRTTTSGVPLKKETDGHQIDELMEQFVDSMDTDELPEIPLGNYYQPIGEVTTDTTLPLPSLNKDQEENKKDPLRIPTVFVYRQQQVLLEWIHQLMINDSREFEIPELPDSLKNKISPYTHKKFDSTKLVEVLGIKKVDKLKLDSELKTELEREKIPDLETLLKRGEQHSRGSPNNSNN

| Binder | Kd (Cdc13 [1]) [nM] | binding result (Cdc13-K504E) | other results |
| --- | --- | --- | --- |
| ds26 (dsDNA) DNA 1: ATAATGATAAGACGTAGAGTGGGTGT DNA 2: ACACCCACTCTACGTCTTATCATTAT | ~300 | – | binding result (RPA): no binding |
| Cdc13 (recombinant full-length, Cdc13-Flag) (natural protein, S. cerevisiae, UniProt P32797 1-924, looked up) MDTLEEPECPPHKNRIFVSSSKDFEGYPSKAIVPVQFVALLTSIHLTETKCLLGFSNFERRGDQSQEDQYLIKLKFKDRGSERLARITISLLCQYFDIELPDLDSDSGASPTVILRDIHLERLCFSSCKALYVSKHGNYTLFLEDIKPLDLVSVISTISTKSTNSSKHSSSELISECDLNNSLVDIFNNLIEMNRDEKNRFKFVKLIHYDIELKKFVQDQQKVLSQKSKAAAINPFFVPNRLGIPYIESQNEFNSQLMTLNVDEPTTDISNMGEEMHDSADPIEDSDSSTTSSTGKYFSSKSYIQSQTPERKTSVPNNWHDDDSGSKRKRKLSFHSPNASSIRKAISYEQLSLASVGSVERLEGKIVGMNPPQFASINEFKYCTLKLYFTQLLPNVPDKVLVPGVNCIEIVIPTRERICELFGVLNCQSDKISDILLLEKPDRISVEVERILWDNDKTASPGMAVWSLKNISTDTQAQAQVQVPAQSSASIDPSRTRMSKMARKDPTIEFCQLGLDTFETKYITMFGMLVSCSFDKPAFISFVFSDFTKNDIVQNYLYDRYLIDYENKLELNEGFKAIMYKNQFETFDSKLRKIFNNGLRDLQNGRDENLSQYGIVCKMNIKVKMYNGKLNAIVRECEPVPHSQISSIASPSQCEHLRLFYQRAFKRIGESAISRYFEEYRRFFPIHRNGSHLAKLRFDEVKHEPKKSPTTPALAEHIPDLNADVSSFDVKFTDISSLLDSSARLPRPQQTHKSNTLYSCEGRIIAIEYHASDLCFHITNELPLLQTRGLAPERVLQLHIITSKNFAYFFNRSSAYLQRQPLEEKYTQLAQFLGHSFKFNITSSLTLFPDTTVALQIWCPIECTFRELQQQLAHPKVAAAPDSGSLDCAINATVNPLRLLAAQNGVTVKKEEDNDDDAGAVPTS | – | – | stoichiometry N (SEC): 2 |
| GTGTGGT (ssDNA) [ssTel7] | – | – | binding result (Cdc13 [2]): no binding |
| Tel14 (dsDNA) DNA 1: ATAATGATAAGACGTAGAGTGGGTGTGTGTGTGGGGTGGT DNA 2: ACACCCACTCTACGTCTTATCATTAT | ~5 | binds | – |
| TGTGGGTGTGGTGTGGGTGTGG (ssDNA) [ssTel22] | – | binds | – |
| Tel7 (dsDNA) DNA 1: ATAATGATAAGACGTAGAGTGGGTGTGTGTGTG DNA 2: ACACCCACTCTACGTCTTATCATTAT | ~20 | – | – |
| L-Tel22 (dsDNA) DNA 1: TTCAGACAACAGTAGACTACAAGGATGACGACAAGATTAAGCTTTCTTATGTGGGTGTGTGTGTGGGGTGGTGTGTGTGG DNA 2: ACACCCACATAAGAAAGCTTAATCTTGTCGTCATCCTTGTAGTCTACTGTTGTCTGAA | – | – | binding result (Cdc13 [3]): binds; binding result (Cdc13-OB234): binds |
| Tel22 (dsDNA) DNA 1: ATAATGATAAGACGTAGAGTGGGTGTGTGTGTGGGGTGGTGTGTGTGG DNA 2: ACACCCACTCTACGTCTTATCATTAT | < 2.5 | binds | binding result (Ku (Ku70-Ku80);Cdc13): binds |
